Source: US20230357431A1
Like-named read-outs stand apart in the source and are kept apart here. Values belong to the substance of their own block, whether it stands above or below them.

How the values were obtained:
[1] = molecular target: VH2VL1-CD8ATD-CD137CSD-CD3zSSD fusion (anti-P329G chimeric antigen receptor)
[2] = molecular target: VL1VH3-CD8ATD-CD137CSD-CD3zSSD fusion (anti-P329G chimeric antigen receptor, VLVH orientation)
[3] = molecular target: VH3VL1-CD8ATD-CD137CSD-CD3zSSD fusion (anti-P329G chimeric antigen receptor)
[4] = molecular target: VH2VL1-CD8ATD-CD137CSD-CD3zSSD fusion (anti-P329G chimeric antigen receptor); remark: listed apart in the source
[5] = molecular target: VL1VH3-CD8ATD-CD137CSD-CD3zSSD fusion (anti-P329G chimeric antigen receptor, VLVH orientation); remark: listed apart in the source
[6] = molecular target: VH1VL1-CD8ATD-CD137CSD-CD3zSSD fusion (anti-P329G chimeric antigen receptor)
[7] = molecular target: VH3VL1-CD8ATD-CD137CSD-CD3zSSD fusion (anti-P329G chimeric antigen receptor); remark: listed apart in the source
[8] = molecular target: VL1VH3-CD8ATD-CD137CSD-CD3zSSD fusion (anti-P329G chimeric antigen receptor, VLVH orientation); remark: listed apart in the source
[9] = molecular target: VH1VL1-CD8ATD-CD137CSD-CD3zSSD fusion (anti-P329G chimeric antigen receptor); remark: listed apart in the source
[10] = molecular target: VH2VL1-CD8ATD-CD137CSD-CD3zSSD fusion (anti-P329G chimeric antigen receptor); remark: listed apart in the source
[11] = molecular target: VL1VH3-CD8ATD-CD137CSD-CD3zSSD fusion (anti-P329G chimeric antigen receptor, VLVH orientation); remark: listed apart in the source
[12] = molecular target: VH1VL1-CD8ATD-CD137CSD-CD3zSSD fusion (anti-P329G chimeric antigen receptor); remark: listed apart in the source
[13] = molecular target: VH3VL1-CD8ATD-CD137CSD-CD3zSSD fusion (anti-P329G chimeric antigen receptor); remark: listed apart in the source
[14] = molecular target: VH2VL1-CD8ATD-CD137CSD-CD3zSSD fusion (anti-P329G chimeric antigen receptor); remark: listed apart in the source
[15] = molecular target: VL1VH3-CD8ATD-CD137CSD-CD3zSSD fusion (anti-P329G chimeric antigen receptor, VLVH orientation); remark: listed apart in the source
[16] = molecular target: VH1VL1-CD8ATD-CD137CSD-CD3zSSD fusion (anti-P329G chimeric antigen receptor); remark: listed apart in the source
[17] = molecular target: VH3VL1-CD8ATD-CD137CSD-CD3zSSD fusion (anti-P329G chimeric antigen receptor); remark: listed apart in the source

Chain of VH1VL1-CD8ATD-CD137CSD-CD3zSSD fusion (anti-P329G chimeric antigen receptor) (chain, as listed by the source P329G P329G): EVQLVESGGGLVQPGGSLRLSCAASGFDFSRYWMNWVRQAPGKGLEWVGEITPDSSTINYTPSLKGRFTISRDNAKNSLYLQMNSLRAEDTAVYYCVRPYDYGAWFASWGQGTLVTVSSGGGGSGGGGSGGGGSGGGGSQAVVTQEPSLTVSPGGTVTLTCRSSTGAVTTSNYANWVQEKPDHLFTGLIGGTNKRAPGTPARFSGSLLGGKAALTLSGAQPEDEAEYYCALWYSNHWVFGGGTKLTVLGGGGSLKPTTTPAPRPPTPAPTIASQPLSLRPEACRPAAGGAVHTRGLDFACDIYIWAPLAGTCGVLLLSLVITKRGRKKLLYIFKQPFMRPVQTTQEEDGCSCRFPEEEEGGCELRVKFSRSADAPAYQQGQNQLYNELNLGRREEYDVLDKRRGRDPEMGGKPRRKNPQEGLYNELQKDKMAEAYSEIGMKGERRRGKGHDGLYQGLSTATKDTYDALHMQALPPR
Chain of VH2VL1-CD8ATD-CD137CSD-CD3zSSD fusion (anti-P329G chimeric antigen receptor) (chain, as listed by the source P329G P329G): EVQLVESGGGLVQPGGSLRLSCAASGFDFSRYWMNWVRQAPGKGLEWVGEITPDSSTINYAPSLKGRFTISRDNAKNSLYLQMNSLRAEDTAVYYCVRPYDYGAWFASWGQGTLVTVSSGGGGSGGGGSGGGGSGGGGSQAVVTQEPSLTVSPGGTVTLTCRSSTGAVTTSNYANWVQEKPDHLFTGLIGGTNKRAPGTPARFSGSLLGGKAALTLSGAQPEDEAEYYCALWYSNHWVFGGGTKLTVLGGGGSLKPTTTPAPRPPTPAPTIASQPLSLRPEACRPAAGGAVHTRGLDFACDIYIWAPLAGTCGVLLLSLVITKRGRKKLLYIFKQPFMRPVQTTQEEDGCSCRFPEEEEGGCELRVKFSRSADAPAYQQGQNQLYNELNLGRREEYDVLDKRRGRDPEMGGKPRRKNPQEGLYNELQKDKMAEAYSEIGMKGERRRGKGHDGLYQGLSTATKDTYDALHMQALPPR
Chain of VH3VL1-CD8ATD-CD137CSD-CD3zSSD fusion (anti-P329G chimeric antigen receptor) (chain, as listed by the source P329G P329G): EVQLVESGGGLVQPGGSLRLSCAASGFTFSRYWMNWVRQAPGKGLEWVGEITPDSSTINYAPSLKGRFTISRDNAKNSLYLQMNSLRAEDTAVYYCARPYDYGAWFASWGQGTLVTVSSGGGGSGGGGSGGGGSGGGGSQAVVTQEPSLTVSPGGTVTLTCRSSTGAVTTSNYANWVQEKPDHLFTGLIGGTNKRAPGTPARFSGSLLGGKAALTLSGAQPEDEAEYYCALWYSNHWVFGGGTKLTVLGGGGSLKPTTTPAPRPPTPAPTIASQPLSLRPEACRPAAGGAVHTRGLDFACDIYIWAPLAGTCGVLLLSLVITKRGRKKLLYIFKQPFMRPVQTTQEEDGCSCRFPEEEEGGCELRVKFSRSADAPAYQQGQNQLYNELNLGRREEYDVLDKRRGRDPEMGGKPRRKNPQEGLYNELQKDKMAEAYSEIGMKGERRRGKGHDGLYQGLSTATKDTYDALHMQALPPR
Chain of VL1VH3-CD8ATD-CD137CSD-CD3zSSD fusion (anti-P329G chimeric antigen receptor, VLVH orientation) (chain, as listed by the source P329G P329G): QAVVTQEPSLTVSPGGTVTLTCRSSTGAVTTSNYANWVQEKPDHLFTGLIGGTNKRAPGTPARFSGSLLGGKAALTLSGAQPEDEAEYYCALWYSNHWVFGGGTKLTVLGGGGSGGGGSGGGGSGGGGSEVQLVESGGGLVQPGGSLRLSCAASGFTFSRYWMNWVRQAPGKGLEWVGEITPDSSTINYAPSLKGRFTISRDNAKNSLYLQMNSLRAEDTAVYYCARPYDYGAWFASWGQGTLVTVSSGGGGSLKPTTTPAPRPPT

Substance: anti-CD20 (GA101) D246A P329G IgG1 (antibody)
EC50, Jurkat NFAT luciferase reporter (RLU/s), WSUDLCL2 target cells 5:1; sigmoid curve with upper plateau [4]: 0.0104 nM
EC50, Jurkat NFAT luciferase reporter (RLU/s), WSUDLCL2 target cells 5:1; sigmoid curve with upper plateau [5]: 6.19 pM
EC50, Jurkat NFAT luciferase reporter (RLU/s), WSUDLCL2 target cells 5:1; sigmoid curve with upper plateau [6]: 8.14 pM
EC50, Jurkat NFAT luciferase reporter (RLU/s), WSUDLCL2 target cells 5:1; sigmoid curve with upper plateau [7]: 5.82 pM

Substance: anti-CD20 (GA101) LALA IgG1 (antibody)
EC50, Jurkat NFAT luciferase reporter (RLU/s), WSUDLCL2 target cells 5:1; the curve is flat (no activation), so the fitted value has no meaning [8]: 0.000234 pM
EC50, Jurkat NFAT luciferase reporter (RLU/s), WSUDLCL2 target cells 5:1; the curve is flat (no activation), so the fitted value has no meaning [9]: 0.0485 pM

Continued, values first:

EC50, Jurkat NFAT luciferase reporter (RLU/s), WSUDLCL2 target cells 5:1, non-targeting antibody; the curve stays at about 60 to 90 RLU/s (no activation), so the fitted value has no meaning [1]: 0.293 nM
EC50, Jurkat NFAT luciferase reporter (RLU/s), WSUDLCL2 target cells 5:1, non-targeting antibody; the curve stays at about 60 to 110 RLU/s (no activation), so the fitted value has no meaning [2]: 7.42 nM
EC50, Jurkat NFAT luciferase reporter (RLU/s), WSUDLCL2 target cells 5:1, non-targeting antibody; flat at about 90 RLU/s with a small rise to about 190 RLU/s at the last point, no plateau [3]: 43.2 nM
Substance: DP47 P329G LALA (antibody)

EC50, Jurkat NFAT luciferase reporter (RLU/s), WSUDLCL2 target cells 5:1; sigmoid curve with upper plateau [10]: 6.93 pM
EC50, Jurkat NFAT luciferase reporter (RLU/s), WSUDLCL2 target cells 5:1; sigmoid curve with upper plateau [11]: 6.58 pM
EC50, Jurkat NFAT luciferase reporter (RLU/s), WSUDLCL2 target cells 5:1; sigmoid curve with upper plateau [12]: 8.1 pM
EC50, Jurkat NFAT luciferase reporter (RLU/s), WSUDLCL2 target cells 5:1; sigmoid curve with upper plateau [13]: 7.57 pM
Substance: anti-CD20 (GA101) P329G LALA IgG1 (antibody)

EC50, Jurkat NFAT luciferase reporter (RLU/s), WSUDLCL2 target cells 5:1; the curve is flat (no activation), so the fitted value has no meaning [14]: 0.000119 pM
EC50, Jurkat NFAT luciferase reporter (RLU/s), WSUDLCL2 target cells 5:1; the curve is flat (no activation), so the fitted value has no meaning [15]: 0.0783 nM
EC50, Jurkat NFAT luciferase reporter (RLU/s), WSUDLCL2 target cells 5:1; the curve is flat (no activation), so the fitted value has no meaning [16]: 2.19 pM
EC50, Jurkat NFAT luciferase reporter (RLU/s), WSUDLCL2 target cells 5:1; the curve is flat (no activation), so the fitted value has no meaning [17]: 0.085 nM
Substance: anti-CD20 (GA101) wild type IgG1 (antibody)
